Several values for one entry are separate records, joined by “and”; a condition that tells them apart may be missing. Equal entries are not always repeated. Where two headings read alike, the source gives them in different places.

Sequences and labels used below:
T1: Truncated AbrB, N-terminal DNA-binding domain (AbrBN) from B. subtilis 168, His6-tagged (B. subtilis 168)
T1 sequence (P08874 whole entry, looked up): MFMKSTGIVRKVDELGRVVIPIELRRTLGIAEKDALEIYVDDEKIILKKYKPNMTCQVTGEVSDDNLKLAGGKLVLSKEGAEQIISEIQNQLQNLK

B1: Full-length AbrB as measured by SAXS (natural protein)
chain: MKSTGIVRKVDELGRVVIPIELRRTLGIAEKDALEIYVDDEKIILKKYKPNMTCQVTGEVSDDNLKLAGGKLVLSKEGAEQIISEIQNQLQNLK
B2: AbbA from B. amyloliquefaciens FZB45 as run on analytical FPLC (natural protein, UniProt A0A9P1JGI2 1-63, looked up)
chain: MSLIGERFTEEEQKLLLNILINHEYAIELLTSEINDIEAGSKSVDGTTYKKLVTLYDRFRNEN
B3: AbrB from B. subtilis 168, full-length, His6-tagged (natural protein, UniProt P08874 1-96, looked up)
chain: T1 sequence (P08874 whole entry, looked up)
B4: AbrB antirepressor AbbA from B. subtilis 168, His6-tagged (natural protein, UniProt O31697 1-65, looked up)
chain: MRMSLIGERFTEEEQKLLLNILINHEYAIELLSSEINDIETGTKNVDGTTYKKLVTLYDRFRFEN
B5: AbbA from B. subtilis 168 as run on analytical FPLC (natural protein, UniProt O31697 1-65, looked up)
chain: B4 chain

The target of data set [1] is AbrB from B. amyloliquefaciens FZB45, full-length, His6-tagged (B. amyloliquefaciens FZB45). Description: SEC. (SEC sorts molecules by how far they enter the pores of the column.)
The target in a further data set is full-length AbrB. Briefly: SPR. (In general: In SPR one partner is held on a chip, and binding of the other changes the refractive index at the surface.)
The data set “SAXS” concerns the molecule itself. Description: SAXS.
Data set [2] deals with AbrB from B. amyloliquefaciens FZB45, full-length, His6-tagged (B. amyloliquefaciens FZB45). Description: SPR.
The target is the same in data set [3]. Description: native gel or EMSA. (In EMSA bound probe runs differently from free probe, usually more slowly.)
Data set [4] shares this target. Briefly: SPR. This is another data set of the same source.
The data set “SEC” concerns the molecule itself. Briefly: SEC.
The target in data set [5] is AbrB from B. amyloliquefaciens FZB45, full-length, His6-tagged (B. amyloliquefaciens FZB45). Briefly: SPR. This is another data set of the same source.
For data set [6], the target named is T1, Truncated AbrB, N-terminal DNA-binding domain (AbrBN) from B. subtilis 168, His6-tagged (B. subtilis 168). Description: SPR.
Data set [7] has as its target B3. Briefly: SPR.
Data set [8] addresses B3. Description: native gel or EMSA.

On to “AbrB from B. amyloliquefaciens FZB45, full-length, His6-tagged (natural protein)”, for which the stoichiometry N (as a rule, a count of units in the complex or per binding partner) in [1] was found to be 4.

AbbA: in the data set with full-length AbrB, the ka1 (two-state reaction model, first reaction) is 132000 M⁻¹ s⁻¹ and 158000 M⁻¹ s⁻¹; the kd1 (two-state reaction model, first reaction) is 0.0955 s⁻¹ and 0.157 s⁻¹.

With B1, the “stoichiometry N” value in the data set “SAXS” is 4.

B2 came in with a KD1 (two-state reaction model, first reaction) in data set [2] of 791 nM. Further, the dissociation constant (Kd) (as a rule, the constant that tells how readily two partners part at equilibrium) is 68.9 nM in data set [2]; 31.4 nM in [4]; 1140 nM and 1240 nM in data set [5]. Moreover, the stoichiometry N (AbbA dimers per AbrB tetramer) in [3] stood at 2. Further, the “stoichiometry N” value in the data set “SEC” is 2.

On to B3, for which the “stoichiometry N” value in the data set “SEC” was found to be 4.

As to B4, the Kd in data set [6] stood at 3700 nM; in data set [7], 448 nM. In addition, the “stoichiometry N” value in data set [8] was ~2 AbbA dimers per AbrB tetramer.

Turning to B5, the “stoichiometry N” value in the data set “SEC” turned out to be 2.

These data come from publication doi:10.1101/2024.08.12.607668 (bioRxiv, 2024).
